We go through three molecules from publication PMC6864843 (2019).

The target in test [1] is Recombinant AAV1 particles (Adeno-Associated Virus serotype 1 capsid) (Adeno-associated virus 1) (UniProt Q9WBP8). In words: SPR; BIAcore T200; AAV1 particles immobilised on a CM5 chip by amide coupling (in sodium acetate pH 4.5); AAVR flowed at different concentrations, 30 μL/min, 25 °C, 100 mM NaCl in 10 mM HEPES pH 7.4. (In general: In SPR one partner is held on a chip, and binding of the other changes the refractive index at the surface.)

For test [2], the target named is Recombinant AAV2 particles (Adeno-Associated Virus serotype 2 capsid) (Adeno-associated virus 2). Put plainly: ELISA; sandwich 'VIRELISA': 10 μg AAVR-His coated per well, AAV2 sample (1.0 × 10^8 v.g. in Table 1) 1 h at RT, blocked with BSA, AAVR-SBP-His probe 1 h in PBST, HRP-streptavidin, ABTS, read at 450 nm; probe concentration, SAV-HRP dilution and ABTS time varied in Table 1. For orientation: In an ELISA, binding on a coated surface is turned into a signal by an enzyme label.
Chain of Recombinant AAV2 particles (Adeno-Associated Virus serotype 2 capsid) (Adeno-associated virus 2) (O56652 whole entry, chain 1 of 3): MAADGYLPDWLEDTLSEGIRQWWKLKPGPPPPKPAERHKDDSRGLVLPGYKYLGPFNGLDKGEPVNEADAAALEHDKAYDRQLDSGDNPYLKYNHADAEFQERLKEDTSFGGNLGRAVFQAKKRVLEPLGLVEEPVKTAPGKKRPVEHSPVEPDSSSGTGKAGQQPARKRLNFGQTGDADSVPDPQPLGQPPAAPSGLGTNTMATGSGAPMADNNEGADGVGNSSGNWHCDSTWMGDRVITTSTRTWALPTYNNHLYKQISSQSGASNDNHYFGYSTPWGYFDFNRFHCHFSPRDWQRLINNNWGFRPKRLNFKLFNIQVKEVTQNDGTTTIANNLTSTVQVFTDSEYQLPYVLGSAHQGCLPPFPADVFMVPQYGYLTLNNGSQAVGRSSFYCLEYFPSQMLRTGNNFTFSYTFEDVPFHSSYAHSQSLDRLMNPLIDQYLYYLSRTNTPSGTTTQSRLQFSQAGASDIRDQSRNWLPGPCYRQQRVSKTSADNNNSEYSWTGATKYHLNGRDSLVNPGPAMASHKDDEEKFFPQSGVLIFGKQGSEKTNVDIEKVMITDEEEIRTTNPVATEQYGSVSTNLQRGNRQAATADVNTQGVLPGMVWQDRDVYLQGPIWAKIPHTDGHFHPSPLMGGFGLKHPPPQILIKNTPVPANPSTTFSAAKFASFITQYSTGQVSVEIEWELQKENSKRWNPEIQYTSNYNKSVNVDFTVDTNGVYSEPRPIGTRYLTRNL
Chain of Recombinant AAV2 particles (Adeno-Associated Virus serotype 2 capsid) (Adeno-associated virus 2) (P03135 139-735, tags left off, chain 2 of 3, further chain): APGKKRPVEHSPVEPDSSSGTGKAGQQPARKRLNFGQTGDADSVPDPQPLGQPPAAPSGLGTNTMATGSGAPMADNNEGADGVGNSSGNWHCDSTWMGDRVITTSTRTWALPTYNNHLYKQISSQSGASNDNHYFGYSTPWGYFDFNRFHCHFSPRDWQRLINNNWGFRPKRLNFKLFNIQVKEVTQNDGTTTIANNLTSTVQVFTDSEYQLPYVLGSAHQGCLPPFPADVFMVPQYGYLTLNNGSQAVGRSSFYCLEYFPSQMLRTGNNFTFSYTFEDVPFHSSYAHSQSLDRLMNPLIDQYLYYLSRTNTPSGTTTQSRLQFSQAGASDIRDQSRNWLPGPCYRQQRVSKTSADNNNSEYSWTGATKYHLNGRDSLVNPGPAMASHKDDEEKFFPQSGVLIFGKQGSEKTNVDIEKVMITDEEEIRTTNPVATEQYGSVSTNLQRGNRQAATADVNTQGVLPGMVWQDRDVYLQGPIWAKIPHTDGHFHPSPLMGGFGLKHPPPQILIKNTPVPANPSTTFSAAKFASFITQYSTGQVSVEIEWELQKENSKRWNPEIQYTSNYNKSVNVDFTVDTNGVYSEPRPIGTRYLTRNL
Chain of Recombinant AAV2 particles (Adeno-Associated Virus serotype 2 capsid) (Adeno-associated virus 2) (P03135 203-735 limits assumed, chain 3 of 3, further chain): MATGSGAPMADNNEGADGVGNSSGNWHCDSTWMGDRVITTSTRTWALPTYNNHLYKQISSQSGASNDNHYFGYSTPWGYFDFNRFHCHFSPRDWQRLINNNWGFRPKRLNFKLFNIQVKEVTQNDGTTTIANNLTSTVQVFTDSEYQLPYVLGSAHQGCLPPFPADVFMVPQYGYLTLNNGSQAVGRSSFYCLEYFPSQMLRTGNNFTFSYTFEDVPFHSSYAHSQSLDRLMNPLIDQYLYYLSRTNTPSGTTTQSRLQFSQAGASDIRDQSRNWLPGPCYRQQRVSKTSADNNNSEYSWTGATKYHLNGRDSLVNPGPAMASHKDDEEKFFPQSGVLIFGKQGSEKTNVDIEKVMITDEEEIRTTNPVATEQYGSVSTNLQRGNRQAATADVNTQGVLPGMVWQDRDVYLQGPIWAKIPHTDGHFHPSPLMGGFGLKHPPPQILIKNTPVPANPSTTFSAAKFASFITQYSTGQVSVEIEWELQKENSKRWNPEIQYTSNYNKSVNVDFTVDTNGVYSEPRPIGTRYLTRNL

The target in test [3] is T1, Recombinant AAV1 particles (Adeno-Associated Virus serotype 1 capsid) (Adeno-associated virus 1, UniProt Q9WBP8 1-736).
T1 chain 1: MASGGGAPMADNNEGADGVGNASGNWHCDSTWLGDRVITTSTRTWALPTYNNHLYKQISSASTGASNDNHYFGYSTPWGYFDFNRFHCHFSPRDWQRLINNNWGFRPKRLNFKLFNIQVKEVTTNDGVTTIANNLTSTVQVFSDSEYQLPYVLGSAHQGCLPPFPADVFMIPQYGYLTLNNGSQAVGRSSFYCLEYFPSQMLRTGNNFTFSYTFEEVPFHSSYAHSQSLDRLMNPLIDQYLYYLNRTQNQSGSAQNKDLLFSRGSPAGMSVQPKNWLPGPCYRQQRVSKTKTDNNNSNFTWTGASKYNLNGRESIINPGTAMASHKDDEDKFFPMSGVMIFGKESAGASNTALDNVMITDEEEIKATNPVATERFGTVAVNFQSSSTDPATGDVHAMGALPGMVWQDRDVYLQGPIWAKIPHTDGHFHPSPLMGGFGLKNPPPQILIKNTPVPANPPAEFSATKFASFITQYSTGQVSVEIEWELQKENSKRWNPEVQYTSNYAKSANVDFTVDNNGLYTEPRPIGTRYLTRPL
T1 chain 2: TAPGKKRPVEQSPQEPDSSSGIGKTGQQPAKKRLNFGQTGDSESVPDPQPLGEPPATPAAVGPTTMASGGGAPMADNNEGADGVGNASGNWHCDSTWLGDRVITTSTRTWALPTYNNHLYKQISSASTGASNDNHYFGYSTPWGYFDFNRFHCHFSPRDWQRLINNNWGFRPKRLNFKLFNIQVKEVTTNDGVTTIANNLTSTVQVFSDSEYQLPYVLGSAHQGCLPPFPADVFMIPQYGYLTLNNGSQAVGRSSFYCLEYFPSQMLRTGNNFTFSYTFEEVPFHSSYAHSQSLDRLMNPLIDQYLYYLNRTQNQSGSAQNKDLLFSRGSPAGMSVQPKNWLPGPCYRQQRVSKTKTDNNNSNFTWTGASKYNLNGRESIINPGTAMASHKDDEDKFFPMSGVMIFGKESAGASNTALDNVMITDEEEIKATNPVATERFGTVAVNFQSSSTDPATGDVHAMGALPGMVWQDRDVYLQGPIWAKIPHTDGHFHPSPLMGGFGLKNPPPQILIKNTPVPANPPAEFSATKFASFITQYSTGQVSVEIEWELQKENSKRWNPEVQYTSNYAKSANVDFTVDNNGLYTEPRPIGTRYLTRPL
T1 chain 3: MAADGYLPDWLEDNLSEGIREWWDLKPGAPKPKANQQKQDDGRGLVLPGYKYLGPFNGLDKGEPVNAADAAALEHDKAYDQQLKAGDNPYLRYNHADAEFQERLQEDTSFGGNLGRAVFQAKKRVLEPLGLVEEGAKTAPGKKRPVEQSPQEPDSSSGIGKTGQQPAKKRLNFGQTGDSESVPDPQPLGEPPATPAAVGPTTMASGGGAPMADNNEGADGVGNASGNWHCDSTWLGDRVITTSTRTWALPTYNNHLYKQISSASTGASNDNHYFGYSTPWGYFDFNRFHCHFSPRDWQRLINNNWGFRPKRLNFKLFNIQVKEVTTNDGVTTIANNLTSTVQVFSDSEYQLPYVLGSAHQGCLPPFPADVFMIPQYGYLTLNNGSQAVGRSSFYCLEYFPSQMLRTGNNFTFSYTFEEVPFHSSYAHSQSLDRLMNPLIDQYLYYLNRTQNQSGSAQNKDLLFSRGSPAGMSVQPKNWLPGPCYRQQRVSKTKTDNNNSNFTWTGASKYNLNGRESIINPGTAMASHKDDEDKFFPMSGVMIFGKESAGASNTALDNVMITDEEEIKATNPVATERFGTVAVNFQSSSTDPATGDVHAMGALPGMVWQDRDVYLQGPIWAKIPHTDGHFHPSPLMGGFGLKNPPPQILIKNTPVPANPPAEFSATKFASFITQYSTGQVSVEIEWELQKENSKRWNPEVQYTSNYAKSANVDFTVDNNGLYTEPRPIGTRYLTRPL
In words: SPR.

For “Soluble recombinant AAVR (analyte of the BIAcore assay) (domain or fragment)”, the equilibrium dissociation constant (Kd) (commonly a measure of binding affinity in units of concentration) in test [1] came to 255 nM.

For the molecule “AAVR-SBP-His (AAVR PKD domains 1–5 with C-terminal streptavidin binding peptide and 6× His-tag in tandem) (domain or fragment)”, in test [2], the absorbance at 450 nm, AAVR-SBP-His 50 μg/mL (absorbance (450 nm)) is 0.662; the absorbance at 450 nm, AAVR-SBP-His 100 μg/mL (absorbance (450 nm)) was found to be 0.861; the absorbance at 450 nm, ABTS incubating time 10 min (absorbance (450 nm)) is 0.32; the absorbance at 450 nm, ABTS incubating time 15 min (absorbance (450 nm)) was determined as 0.663. Moreover, in test [2], the absorbance at 450 nm, ABTS incubating time 20 min (absorbance (450 nm)) was determined as 0.819; the absorbance at 450 nm, ABTS incubating time 30 min (absorbance (450 nm)) was 1.33; the absorbance at 450 nm, SAV-HRP dilution 1/1000 (absorbance (450 nm)) is 0.872; the absorbance at 450 nm, SAV-HRP dilution 1/2000 (absorbance (450 nm)) was determined as 0.798. Moreover, the absorbance at 450 nm, SAV-HRP dilution 1/5000 (absorbance (450 nm)) in test [2] stood at 0.662.

B1: Soluble recombinant AAVR (analyte of the BIAcore assay) (domain or fragment)
chain: SAGESVQITLPKNEVQLNAYVLQEPPKGETYTYDWQLITHPRDYSGEMEGKHSQILKLSKLTPGLYEFKVIVEGQNAHGEGYVNVTVKPEPRKNRPPIAIVSPQFQEISLPTTSTVIDGSQSTDDDKIVQYHWEELKGPLREEKISEDTAILKLSKLVPGNYTFSLTVVDSDGATNSTTANLTVNKAVDYPPVANAGPNQVITLPQNSITLFGNQSTDDHGITSYEWSLSPSSKGKVVEMQGVRTPTLQLSAMQEGDYTYQLTVTDTIGQQATAQVTVIVQPENNKPPQADAGPDKELTLPVDSTTLDGSKSSDDQKIISYLWEKTQGPDGVQLENANSSVATVTGLQVGTYVFTLTVKDERNLQSQSSVNVIVKEEINKPPIAKITGNVVITLPTSTAELDGSKSSDDKGIVSYLWTRDEGSPAAGEVLNHSDHHPILFLSNLVEGTYTFHLKVTDAKGESDTDRTTVEVKPD
On to B1, for which the koff – broadly, the rate constant with which the complex falls apart – in test [3] turned out to be 0.00184 s⁻¹.
